Experimental data: publication PMC11544220 (Scientific Reports, 2024)

Experiments:
[1] = biological target: Stl-Avi, biotinylated full-length Stl for the BLI sensor (Staphylococcus aureus, UniProt Q9F0J8 1-267, biotin on the Avi-tag); experiment: BLI
[2] = biological target: Stl^NT-Avi, biotinylated Stl 1-159 for the BLI sensor (Staphylococcus aureus, UniProt Q9F0J8 1-159, biotin on the Avi-tag); experiment: BLI
native MS = biological target: the molecule itself; experiment: native MS

B1: Mycobacterium tuberculosis dUTPase, wild type (MtDUT^WT) (enzyme)
chain: MSTTLAIVRLDPGLPLPSRAHDGDAGVDLYSAEDVELAPGRRALVRTGVAVAVPFGMVGLVHPRSGLATRVGLSIVNSPGTIDAGYRGEIKVALINLDPAAPIVVHRGDRIAQLLVQRVELVELVEVSSFDEAGLASTSRGDGGHGSSGGHASL
Kd [1]: < 0.001 nM
koff [1]: < 1e-07 s⁻¹
kon [1]: 270000 ± 0.01 M⁻¹ s⁻¹
Kd [2]: 0.19 ± 0.001 nM
koff [2]: 0.000103 ± 0.04 s⁻¹
kon [2]: 542000 ± 0.01 M⁻¹ s⁻¹
stoichiometry N (native MS): 3 subunits in the oligomer
